Measured values reported in IntAct's records for PubMed 24130456.

B1: Ribosomal RNA-processing protein 7 (Saccharomyces cerevisiae), P25368 (parent)
chain: MGIEDISAMKNGFIVVPFKLPDHKALPKSQEASLHFMFAKRHQSSNSNESDCLFLVNLPLLSNIEHMKKFVGQLCGKYDTVSHVEELLYNDEFGLHEVDLSALTSDLMSSTDVNEKRYTPRNTALLKFVDAASINNCWNALKKYSNLHAKHPNELFEWTYTTPSFTTFVNFYKPLDIDYLKEDIHTHMAIFEQREAQAQEDVQSSIVDEDGFTLVVGKNTKSLNSIRKKILNKNPLSKHENKAKPISNIDKKAKKDFYRFQVRERKKQEINQLLSKFKEDQERIKVMKAKRKFNPYT
partner: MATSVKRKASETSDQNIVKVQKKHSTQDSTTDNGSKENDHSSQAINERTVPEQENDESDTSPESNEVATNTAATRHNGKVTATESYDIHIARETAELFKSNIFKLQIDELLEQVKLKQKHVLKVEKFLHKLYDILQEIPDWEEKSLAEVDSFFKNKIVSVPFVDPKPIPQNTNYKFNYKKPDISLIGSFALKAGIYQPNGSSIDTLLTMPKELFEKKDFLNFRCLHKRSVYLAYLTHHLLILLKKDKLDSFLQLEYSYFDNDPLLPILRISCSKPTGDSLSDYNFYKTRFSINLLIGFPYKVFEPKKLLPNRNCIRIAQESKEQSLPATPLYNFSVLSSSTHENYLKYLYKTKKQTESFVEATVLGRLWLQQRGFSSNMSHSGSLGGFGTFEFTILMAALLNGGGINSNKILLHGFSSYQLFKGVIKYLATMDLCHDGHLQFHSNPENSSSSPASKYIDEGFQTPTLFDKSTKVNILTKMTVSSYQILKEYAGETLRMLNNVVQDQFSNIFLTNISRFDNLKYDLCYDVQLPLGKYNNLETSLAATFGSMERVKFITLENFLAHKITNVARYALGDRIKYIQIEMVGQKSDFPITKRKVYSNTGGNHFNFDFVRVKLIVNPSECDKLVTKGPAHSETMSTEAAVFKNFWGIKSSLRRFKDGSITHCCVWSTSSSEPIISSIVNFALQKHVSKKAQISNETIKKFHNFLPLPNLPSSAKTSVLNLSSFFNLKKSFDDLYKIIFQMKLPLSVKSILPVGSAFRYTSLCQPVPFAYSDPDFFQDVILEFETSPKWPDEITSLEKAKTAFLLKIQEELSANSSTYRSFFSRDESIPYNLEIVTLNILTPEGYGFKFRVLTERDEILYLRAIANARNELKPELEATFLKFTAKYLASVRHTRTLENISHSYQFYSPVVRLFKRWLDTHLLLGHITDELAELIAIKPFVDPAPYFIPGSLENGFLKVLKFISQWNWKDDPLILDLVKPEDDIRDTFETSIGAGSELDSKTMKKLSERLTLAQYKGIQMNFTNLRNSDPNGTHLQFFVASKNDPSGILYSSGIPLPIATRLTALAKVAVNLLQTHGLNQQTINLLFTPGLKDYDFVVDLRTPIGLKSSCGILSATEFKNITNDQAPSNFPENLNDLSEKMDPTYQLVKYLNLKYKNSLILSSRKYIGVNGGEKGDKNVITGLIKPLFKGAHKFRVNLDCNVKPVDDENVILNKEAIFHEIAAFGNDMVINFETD

Variants of: B1
Details: with utp22_yeast UTP22, P53254

F38D was tested. Which “effect of a mutation on the interaction” value did it give?
The value was “disrupting interaction strength”.
